US5268275, “Vitamin K-dependent carboxylase” (The University of North Carolina at Chapel Hill, dated 1993)

T1: bovine vitamin K-dependent carboxylase (94,000 Mr protein from bovine liver microsomes) (bovine) (UniProt Q07175)
T1 sequence: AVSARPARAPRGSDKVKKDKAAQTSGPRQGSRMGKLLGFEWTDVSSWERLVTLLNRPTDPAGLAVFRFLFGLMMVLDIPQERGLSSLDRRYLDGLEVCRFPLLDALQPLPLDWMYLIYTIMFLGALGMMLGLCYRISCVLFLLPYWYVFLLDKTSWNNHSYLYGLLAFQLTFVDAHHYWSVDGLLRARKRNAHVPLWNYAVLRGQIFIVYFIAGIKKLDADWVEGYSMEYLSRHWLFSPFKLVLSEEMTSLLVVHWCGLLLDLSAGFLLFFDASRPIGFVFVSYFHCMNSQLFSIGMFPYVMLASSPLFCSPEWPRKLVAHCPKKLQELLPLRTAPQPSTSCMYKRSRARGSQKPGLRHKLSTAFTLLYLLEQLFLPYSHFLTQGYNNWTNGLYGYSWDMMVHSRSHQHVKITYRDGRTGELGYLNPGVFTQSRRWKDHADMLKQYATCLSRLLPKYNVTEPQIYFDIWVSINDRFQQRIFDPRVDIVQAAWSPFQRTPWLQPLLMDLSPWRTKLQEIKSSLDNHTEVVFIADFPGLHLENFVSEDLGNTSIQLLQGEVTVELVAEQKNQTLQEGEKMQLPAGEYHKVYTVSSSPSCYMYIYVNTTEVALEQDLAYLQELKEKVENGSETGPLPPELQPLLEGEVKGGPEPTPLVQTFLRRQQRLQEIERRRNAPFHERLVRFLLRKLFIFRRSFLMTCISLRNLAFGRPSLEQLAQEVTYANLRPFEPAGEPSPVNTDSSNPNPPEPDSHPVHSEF

T2: bovine vitamin K-dependent carboxylase (94,000 Mr protein from bovine liver microsomes) (bovine, UniProt Q07175)
T2 sequence: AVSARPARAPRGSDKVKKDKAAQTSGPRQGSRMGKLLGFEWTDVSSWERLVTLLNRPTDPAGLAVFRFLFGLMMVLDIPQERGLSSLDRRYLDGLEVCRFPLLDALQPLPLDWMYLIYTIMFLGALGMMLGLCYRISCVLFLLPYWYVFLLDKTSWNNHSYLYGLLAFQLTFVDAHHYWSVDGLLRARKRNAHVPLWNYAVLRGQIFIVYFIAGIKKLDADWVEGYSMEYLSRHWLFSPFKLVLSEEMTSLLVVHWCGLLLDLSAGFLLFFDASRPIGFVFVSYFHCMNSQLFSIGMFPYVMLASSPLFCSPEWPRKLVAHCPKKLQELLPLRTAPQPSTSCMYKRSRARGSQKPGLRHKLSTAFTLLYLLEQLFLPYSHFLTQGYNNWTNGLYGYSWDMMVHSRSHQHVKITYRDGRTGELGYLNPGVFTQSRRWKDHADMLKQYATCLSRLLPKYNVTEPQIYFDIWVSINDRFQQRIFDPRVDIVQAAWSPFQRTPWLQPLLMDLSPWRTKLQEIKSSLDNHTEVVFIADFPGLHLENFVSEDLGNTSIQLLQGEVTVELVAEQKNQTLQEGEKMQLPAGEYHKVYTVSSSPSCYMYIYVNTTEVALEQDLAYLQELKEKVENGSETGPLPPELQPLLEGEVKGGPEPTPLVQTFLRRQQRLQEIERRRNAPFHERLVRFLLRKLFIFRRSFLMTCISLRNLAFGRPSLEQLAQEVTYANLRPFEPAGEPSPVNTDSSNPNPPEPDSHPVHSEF


Legend:
[1] = biological target: T1, bovine vitamin K-dependent carboxylase (94,000 Mr protein from bovine liver microsomes) (bovine)
[2] = biological target: T2, bovine vitamin K-dependent carboxylase …; test: competition of cross-linking of 125I-FIXQ/S to the carboxylase, 100-fold excess of proFIX19
Text: In order to evaluate the binding specificity of FIXQ/S and attain an independent estimate of the molecular weight of the carboxylase, we cross-linked ^125I-FIXQ/S to 60-fold affinity-purified material (FIG. 1, lane 3). […] The minor bands in lane 2 were unaffected by competition (lane 1). By subtracting the molecular weight of FIXQ/S (7,000 M_r) from the estimated size of the cross-linked complex we estimate that the size of the protein to which the FIXQ/S peptide binds is approximately 94,000 M_r.

| specific activity, 14CO2 incorporation into FLEEL (cpm/mg protein/hr) (peptide FLEEL) | stimulation of the incorporation of CO2 into FLEEL [1] | binding result [2] | Molecule |
| --- | --- | --- | --- |
| 2.4e+09 |  |  | bovine vitamin K-dependent carboxylase (94,000 Mr protein from bovine liver microsomes) (from UniProt Q07175) (enzyme) |
|  | 13 fold | binds | AVFLDHENANKILNRPKRY [Peptide proFIX19] |
